# Laboratory results published in patent publication US20260217835A1 (published 2026).
# Columns and labels:
# [1] = target: the molecule itself; assay: SEC peak area ratio after coexpression of full-length heavy chain, light chain and Fc fragment (1:2:1) in Expi293F, Protein A purified; homodimer of the full-length heavy chain;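 also: purified antibodies separated by size-exclusion UPLC with UV detection at 215 nm, species resolved by molecular weight, mobile phase 50 mM phosphate with 300 mM NaCl at pH 7.0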
# [2] = target: T1, Fc fragment below the hinge region containing no modification (SEQ ID NO: 62) (human, UniProt P01857 104-328 = IgG part); assay: SEC peak area ratio after coexpression of full-length heavy chain, light chain and Fc fragment (1:2:1) in Expi293F, Protein A purified; heterodimer of full-length heavy chain with Fc fragment;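 also: purified antibodies separated by size exclusion chromatography on a UPLC system, detected by UV absorbance at 215 nm, heteromultimer given as share of chromatogram peak area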
# T1 construct: Unmodified human IgG1 Fc fragment, coexpressed with a full-length heavy chain and the light chain; It pairs with itself (homo Fc fragment) or with the full-length heavy chain (heteromultimer); also called WT-Fc fragment; Sample No. 62
# [3] = target: the molecule itself; assay: SEC peak area ratio after coexpression of full-length heavy chain, light chain and Fc fragment
Heteromultimer (%) [2],Binder,Homo full-length heavy chain (%) [1],Homo full-length heavy chain (%) [3]
0%,"Full-length heavy chain with Y349C/E357C/K392C/T394C/V397C/D399C (SEQ ID NO: 45) with light chain SEQ ID NO: 61 (antibody, human IgG1, kappa, also called Sample No. 45) heavy: QVQLQESGPGLVRPSQTLSLTCTVSGYSITSDHAWSWVRQPPGRGLEWIGYISYSGITTYNPSLKSRVTMLRDTSKNQFSLRLSSVTAADTAVYYCARSLARTTAMDYWGQGSLVTVSSASTKGPSVFPLAPSSKSTSGGTAALGCLVKDYFPEPVTVSWNSGALTSGVHTFPAVLQSSGLYSLSSVVTVPSSSLGTQTYICNVNHKPSNTKVDKRVEPKSCDKTHTCPPCPAPELLGGPSVFLFPPKPKDTLMISRTPEVTCVVVDVSHEDPEVKFNWYVDGVEVHNAKTKPREEQYNSTYRVVSVLTVLHQDWLNGKEYKCKVSNKALPAPIEKTISKAKGQPREPQVCTLPPSRECMTKNQVSLTCLVKGFYPSDIAVEWESNGQPENNYCTCPPCLCSDGSFFLYSKLTVDKSRWQQGNVFSCSVMHEALHNHYTQKSLSLSP light: not shown",24.3%,–
23.1%,"Full-length heavy chain with Y349C/E357C/T394C/V397C (SEQ ID NO: 44) with light chain SEQ ID NO: 61 (antibody, human IgG1, kappa, also called Sample No. 44) heavy: QVQLQESGPGLVRPSQTLSLTCTVSGYSITSDHAWSWVRQPPGRGLEWIGYISYSGITTYNPSLKSRVTMLRDTSKNQFSLRLSSVTAADTAVYYCARSLARTTAMDYWGQGSLVTVSSASTKGPSVFPLAPSSKSTSGGTAALGCLVKDYFPEPVTVSWNSGALTSGVHTFPAVLQSSGLYSLSSVVTVPSSSLGTQTYICNVNHKPSNTKVDKRVEPKSCDKTHTCPPCPAPELLGGPSVFLFPPKPKDTLMISRTPEVTCVVVDVSHEDPEVKFNWYVDGVEVHNAKTKPREEQYNSTYRVVSVLTVLHQDWLNGKEYKCKVSNKALPAPIEKTISKAKGQPREPQVCTLPPSRECMTKNQVSLTCLVKGFYPSDIAVEWESNGQPENNYKTCPPCLDSDGSFFLYSKLTVDKSRWQQGNVFSCSVMHEALHNHYTQKSLSLSP light: not shown",20%,–
–,IgG1 full-length heavy chain with E345R/Q347R/K360D/T366V/D399M/Y407A/K409V (SEQ ID NO: 55) with light chain SEQ ID NO: 61 (antibody) heavy: QVQLQESGPGLVRPSQTLSLTCTVSGYSITSDHAWSWVRQPPGRGLEWIGYISYSGITTYNPSLKSRVTMLRDTSKNQFSLRLSSVTAADTAVYYCARSLARTTAMDYWGQGSLVTVSSASTKGPSVFPLAPSSKSTSGGTAALGCLVKDYFPEPVTVSWNSGALTSGVHTFPAVLQSSGLYSLSSVVTVPSSSLGTQTYICNVNHKPSNTKVDKRVEPKSCDKTHTCPPCPAPELLGGPSVFLFPPKPKDTLMISRTPEVTCVVVDVSHEDPEVKFNWYVDGVEVHNAKTKPREEQYNSTYRVVSVLTVLHQDWLNGKEYKCKVSNKALPAPIEKTISKAKGQPRRPRVYTLPPSREEMTDNQVSLVCLVKGFYPSDIAVEWESNGQPENNYKTTPPVLMSDGSFFLASVLTVDKSRWQQGNVFSCSVMHEALHNHYTQKSLSLSP light: not shown,–,70.7%
26.5%,"Full-length heavy chain with Y349T/S364H/T394F/F405A (SEQ ID NO: 32) with light chain SEQ ID NO: 61 (antibody, human IgG1, kappa, also called Sample No. 32) heavy: QVQLQESGPGLVRPSQTLSLTCTVSGYSITSDHAWSWVRQPPGRGLEWIGYISYSGITTYNPSLKSRVTMLRDTSKNQFSLRLSSVTAADTAVYYCARSLARTTAMDYWGQGSLVTVSSASTKGPSVFPLAPSSKSTSGGTAALGCLVKDYFPEPVTVSWNSGALTSGVHTFPAVLQSSGLYSLSSVVTVPSSSLGTQTYICNVNHKPSNTKVDKRVEPKSCDKTHTCPPCPAPELLGGPSVFLFPPKPKDTLMISRTPEVTCVVVDVSHEDPEVKFNWYVDGVEVHNAKTKPREEQYNSTYRVVSVLTVLHQDWLNGKEYKCKVSNKALPAPIEKTISKAKGQPREPQVTTLPPSREEMTKNQVHLTCLVKGFYPSDIAVEWESNGQPENNYKTFPPVLDSDGSFALYSKLTVDKSRWQQGNVFSCSVMHEALHNHYTQKSLSLSP light: not shown",30.7%,–
–,IgG1 full-length heavy chain with E345R/K360E/D399M/Y407A/K409V (SEQ ID NO: 58) with light chain SEQ ID NO: 61 (antibody) heavy: QVQLQESGPGLVRPSQTLSLTCTVSGYSITSDHAWSWVRQPPGRGLEWIGYISYSGITTYNPSLKSRVTMLRDTSKNQFSLRLSSVTAADTAVYYCARSLARTTAMDYWGQGSLVTVSSASTKGPSVFPLAPSSKSTSGGTAALGCLVKDYFPEPVTVSWNSGALTSGVHTFPAVLQSSGLYSLSSVVTVPSSSLGTQTYICNVNHKPSNTKVDKRVEPKSCDKTHTCPPCPAPELLGGPSVFLFPPKPKDTLMISRTPEVTCVVVDVSHEDPEVKFNWYVDGVEVHNAKTKPREEQYNSTYRVVSVLTVLHQDWLNGKEYKCKVSNKALPAPIEKTISKAKGQPRRPQVYTLPPSREEMTENQVSLTCLVKGFYPSDIAVEWESNGQPENNYKTTPPVLMSDGSFFLASVLTVDKSRWQQGNVFSCSVMHEALHNHYTQKSLSLSP light: not shown,–,70.3%
22.7%,"Full-length heavy chain with Y349C/L351C/S354C/E357C (SEQ ID NO: 43) with light chain SEQ ID NO: 61 (antibody, human IgG1, kappa, also called Sample No. 43) heavy: QVQLQESGPGLVRPSQTLSLTCTVSGYSITSDHAWSWVRQPPGRGLEWIGYISYSGITTYNPSLKSRVTMLRDTSKNQFSLRLSSVTAADTAVYYCARSLARTTAMDYWGQGSLVTVSSASTKGPSVFPLAPSSKSTSGGTAALGCLVKDYFPEPVTVSWNSGALTSGVHTFPAVLQSSGLYSLSSVVTVPSSSLGTQTYICNVNHKPSNTKVDKRVEPKSCDKTHTCPPCPAPELLGGPSVFLFPPKPKDTLMISRTPEVTCVVVDVSHEDPEVKFNWYVDGVEVHNAKTKPREEQYNSTYRVVSVLTVLHQDWLNGKEYKCKVSNKALPAPIEKTISKAKGQPREPQVCTCPPCRECMTKNQVSLTCLVKGFYPSDIAVEWESNGQPENNYKTTPPVLDSDGSFFLYSKLTVDKSRWQQGNVFSCSVMHEALHNHYTQKSLSLSP light: not shown",40.2%,–
0%,"Full-length heavy chain with Y349C/E357C/K392D/D399K (SEQ ID NO: 51) with light chain SEQ ID NO: 61 (antibody, human IgG1, kappa, also called Sample No. 51) heavy: QVQLQESGPGLVRPSQTLSLTCTVSGYSITSDHAWSWVRQPPGRGLEWIGYISYSGITTYNPSLKSRVTMLRDTSKNQFSLRLSSVTAADTAVYYCARSLARTTAMDYWGQGSLVTVSSASTKGPSVFPLAPSSKSTSGGTAALGCLVKDYFPEPVTVSWNSGALTSGVHTFPAVLQSSGLYSLSSVVTVPSSSLGTQTYICNVNHKPSNTKVDKRVEPKSCDKTHTCPPCPAPELLGGPSVFLFPPKPKDTLMISRTPEVTCVVVDVSHEDPEVKFNWYVDGVEVHNAKTKPREEQYNSTYRVVSVLTVLHQDWLNGKEYKCKVSNKALPAPIEKTISKAKGQPREPQVCTLPPSRECMTKNQVSLTCLVKGFYPSDIAVEWESNGQPENNYDTTPPVLKSDGSFFLYSKLTVDKSRWQQGNVFSCSVMHEALHNHYTQKSLSLSP light: not shown",36%,–
–,IgG4 full-length heavy chain with K392L/T394W/F405A/Y407V (SEQ ID NO: 96) with light chain SEQ ID NO: 61 (antibody) heavy: QVQLQESGPGLVRPSQTLSLTCTVSGYSITSDHAWSWVRQPPGRGLEWIGYISYSGITTYNPSLKSRVTMLRDTSKNQFSLRLSSVTAADTAVYYCARSLARTTAMDYWGQGSLVTVSSASTKGPSVFPLAPCSRSTSESTAALGCLVKDYFPEPVTVSWNSGALTSGVHTFPAVLQSSGLYSLSSVVTVPSSSLGTKTYTCNVDHKPSNTKVDKRVESKYGPPCPPCPAPEFLGGPSVFLFPPKPKDTLMISRTPEVTCVVVDVSQEDPEVQFNWYVDGVEVHNAKTKPREEQFNSTYRVVSVLTVLHQDWLNGKEYKCKVSNKGLPSSIEKTISKAKGQPREPQVYTLPPSQEEMTKNQVSLTCLVKGFYPSDIAVEWESNGQPENNYLTWPPVLDSDGSFALVSRLTVDKSRWQEGNVFSCSVMHEALHNHYTQKSLSLSL light: not shown,–,66.2%
–,"IgG4 full-length heavy chain with K392D/D399K/R409D (SEQ ID NO: 97) with light chain SEQ ID NO: 61 (antibody, also called Sample No. 193 full-length heavy chain) heavy: QVQLQESGPGLVRPSQTLSLTCTVSGYSITSDHAWSWVRQPPGRGLEWIGYISYSGITTYNPSLKSRVTMLRDTSKNQFSLRLSSVTAADTAVYYCARSLARTTAMDYWGQGSLVTVSSASTKGPSVFPLAPCSRSTSESTAALGCLVKDYFPEPVTVSWNSGALTSGVHTFPAVLQSSGLYSLSSVVTVPSSSLGTKTYTCNVDHKPSNTKVDKRVESKYGPPCPPCPAPEFLGGPSVFLFPPKPKDTLMISRTPEVTCVVVDVSQEDPEVQFNWYVDGVEVHNAKTKPREEQFNSTYRVVSVLTVLHQDWLNGKEYKCKVSNKGLPSSIEKTISKAKGQPREPQVYTLPPSQEEMTKNQVSLTCLVKGFYPSDIAVEWESNGQPENNYDTTPPVLKSDGSFFLYSDLTVDKSRWQEGNVFSCSVMHEALHNHYTQKSLSLSL light: not shown",–,64.5%
